The target of experiment [1] is DC-SIGN ECD immobilised on a streptactin-functionalised SPR surface (human) (UniProt Q9NNX6).
Experiment [2] shares this target. The source holds these as a separate data set.

Read-outs that look alike come from different tables or passages of the source.

Chain of DC-SIGN ECD immobilised on a streptactin-functionalised SPR surface (human) (Q9NNX6 59-404): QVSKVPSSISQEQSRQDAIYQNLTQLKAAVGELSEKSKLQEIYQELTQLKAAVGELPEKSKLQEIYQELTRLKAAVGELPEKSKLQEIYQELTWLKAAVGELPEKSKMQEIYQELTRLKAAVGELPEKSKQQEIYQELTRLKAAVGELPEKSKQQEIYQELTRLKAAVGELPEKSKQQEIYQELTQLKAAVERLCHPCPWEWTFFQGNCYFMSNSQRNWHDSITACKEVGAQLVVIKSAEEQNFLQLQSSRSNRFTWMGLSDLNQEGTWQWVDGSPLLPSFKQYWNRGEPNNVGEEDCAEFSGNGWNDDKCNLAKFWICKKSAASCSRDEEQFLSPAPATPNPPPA
Chain of HCMV gB treated with a(1-2,3,6)-mannosidase (P13201 25-907 limits assumed): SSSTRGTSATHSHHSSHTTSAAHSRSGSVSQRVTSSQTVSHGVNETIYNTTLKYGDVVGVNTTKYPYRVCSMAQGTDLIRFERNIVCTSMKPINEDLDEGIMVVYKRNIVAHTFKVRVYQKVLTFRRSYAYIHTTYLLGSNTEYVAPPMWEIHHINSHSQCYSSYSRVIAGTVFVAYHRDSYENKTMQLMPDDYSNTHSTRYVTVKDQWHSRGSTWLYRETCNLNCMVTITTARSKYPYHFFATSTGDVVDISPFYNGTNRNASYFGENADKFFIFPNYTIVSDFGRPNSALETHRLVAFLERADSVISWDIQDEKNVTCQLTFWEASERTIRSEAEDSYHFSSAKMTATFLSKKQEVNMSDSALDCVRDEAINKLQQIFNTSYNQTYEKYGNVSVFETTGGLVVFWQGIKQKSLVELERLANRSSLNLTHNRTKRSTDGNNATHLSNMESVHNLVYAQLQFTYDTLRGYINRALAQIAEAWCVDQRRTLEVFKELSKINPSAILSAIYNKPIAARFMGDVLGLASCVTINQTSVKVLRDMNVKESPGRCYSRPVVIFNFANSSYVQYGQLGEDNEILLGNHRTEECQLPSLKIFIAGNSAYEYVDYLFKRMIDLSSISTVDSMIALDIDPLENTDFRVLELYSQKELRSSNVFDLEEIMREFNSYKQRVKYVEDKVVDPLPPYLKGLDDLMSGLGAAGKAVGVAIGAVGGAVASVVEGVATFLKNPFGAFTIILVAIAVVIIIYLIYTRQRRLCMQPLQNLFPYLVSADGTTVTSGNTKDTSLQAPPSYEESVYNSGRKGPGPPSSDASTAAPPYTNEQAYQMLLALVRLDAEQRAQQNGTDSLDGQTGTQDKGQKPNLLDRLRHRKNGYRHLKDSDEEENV
Chain of CHO-derived recombinant CMV glycoprotein B (soluble recombinant HCMV gB), untreated (P13201 25-907 limits assumed): as above

Broadly, the Kd is a measure of binding affinity in units of concentration. For “CHO-derived recombinant CMV glycoprotein B (soluble recombinant HCMV gB), untreated (from UniProt P13201 25-907) (ligand)”, the dissociation constant Kd in experiment [1] is 0.014 nM.
“HCMV gB treated with a(1-2,3,6)-mannosidase (from UniProt P13201 25-907) (ligand)” displayed a Kd in experiment [2] of 0.149 nM.
